This note sets out measurements from US20260139061A1 (Novartis, published 2026).

To fix the notation:
B1: CAR10 (Anti-EGFRvIII clone 139), full CAR on cells (other)
chain: DIQMTQSPSSLSASVGDRVTITCRASQGIRNNLAWYQQKPGKAPKRLIYAASNLQSGVPSRFTGSGSGTEFTLIVSSLQPEDFATYYCLQHHSYPLTSGGGTKVEIKRTGSTSGSGKPGSGEGSEVQVLESGGGLVQPGGSLRLSCAASGFTFSSYAMSWVRQAPGKGLEWVSAISGSGGSTNYADSVKGRFTISRDNSKNTLYLQMNSLRAEDTAVYYCAGSSGWSEYWGQGTLVTVSSTTTPAPRPPTPAPTIASQPLSLRPEACRPAAGGAVHTRGLDFACDIYIWAPLAGTCGVLLLSLVITLYCKRGRKKLLYIFKQPFMRPVQTTQEEDGCSCRFPEEEEGGCELRVKFSRSADAPAYKQGQNQLYNELNLGRREEYDVLDKRRGRDPEMGGKPRRKNPQEGLYNELQKDKMAEAYSEIGMKGERRRGKGHDGLYQGLSTATKDTYDALHMQALPPR
notes: Chimeric antigen receptor (139 scFv, CD8 hinge and TM, 4-1BB, CD3 zeta) on Jurkat, JNL or primary human T cells; also called human CAR10
B2: CAR 3 - Soluble scFv (scFv)
scFv: EIQLVQSGAEVKKPGESLRISCKGSGFNIEDYYIHWVRQMPGKGLEWMGRIDPENDETKYGPIFQGHVTISADTSINTVYLQWSSLKASDTAMYYCAFRGGVYWGQGTTVTVSSGGGGSGGGGSGGGGSGGGGSDVVMTQSPLSLPVTLGQPASISCKSSQSLLDSDGKTYLNWLQQRPGQSPRRLISLVSKLDSGVPDRFSGSGSGTDFTLKISRVEAEDVGVYYCWQGTHFPGTFGGGTKVEIKGSHHHHHHHH
notes: Soluble His-tagged humanized scFv; also called humanized EGFRvIII scFv variant, VH5-VK2, 4G4S
B3: CAR2 - Soluble scFv (scFv)
scFv: DVVMTQSPDSLAVSLGERATINCKSSQSLLDSDGKTYLNWLQQKPGQPPKRLISLVSKLDSGVPDRFSGSGSGTDFTLTISSLQAEDVAVYYCWQGTHFPGTFGGGTKVEIKGGGGSGGGGSGGGGSGGGGSEIQLVQSGAEVKKPGATVKISCKGSGFNIEDYYIHWVQQAPGKGLEWMGRIDPENDETKYGPIFQGRVTITADTSTNTVYMELSSLRSEDTAVYYCAFRGGVYWGQGTTVTVSSGSHHHHHHHH
notes: Soluble His-tagged humanized scFv; also called humanized EGFRvIII scFv variant, VK4-VH1, 4G4S
B4: CAR1 Soluble scFv (scFv)
scFv: EIQLVQSGAEVKKPGATVKISCKGSGFNIEDYYIHWVQQAPGKGLEWMGRIDPENDETKYGPIFQGRVTITADTSTNTVYMELSSLRSEDTAVYYCAFRGGVYWGQGTTVTVSSGGGGSGGGGSGGGGSGGGGSDVVMTQSPDSLAVSLGERATINCKSSQSLLDSDGKTYLNWLQQKPGQPPKRLISLVSKLDSGVPDRFSGSGSGTDFTLTISSLQAEDVAVYYCWQGTHFPGTFGGGTKVEIKGSHHHHHHHH
notes: Soluble His-tagged humanized scFv; also called humanized EGFRvIII scFv variant, VH1-VK4, 4G4S
B5: CAR8 - Soluble scFv (scFv)
scFv: DVVMTQSPLSLPVTLGQPASISCKSSQSLLDSDGKTYLNWLQQRPGQSPRRLISLVSKLDSGVPDRFSGSGSGTDFTLKISRVEAEDVGVYYCWQGTHFPGTFGGGTKVEIKGGGGSGGGGSGGGGSGGGGSEIQLVQSGAEVKKPGATVKISCKGSGFNIEDYYIHWVQQAPGKGLEWMGRIDPENDETKYGPIFQGRVTITADTSTNTVYMELSSLRSEDTAVYYCAFRGGVYWGQGTTVTVSSGSHHHHHHHH
notes: Soluble His-tagged humanized scFv; also called humanized EGFRvIII scFv variant, VK2-VH1, 4G4S
B6: CAR4 - Soluble scFv (scFv)
scFv: DVVMTQSPLSLPVTLGQPASISCKSSQSLLDSDGKTYLNWLQQRPGQSPRRLISLVSKLDSGVPDRFSGSGSGTDFTLKISRVEAEDVGVYYCWQGTHFPGTFGGGTKVEIKGGGGSGGGGSGGGGSGGGGSEIQLVQSGAEVKKPGESLRISCKGSGFNIEDYYIHWVRQMPGKGLEWMGRIDPENDETKYGPIFQGHVTISADTSINTVYLQWSSLKASDTAMYYCAFRGGVYWGQGTTVTVSSGSHHHHHHHH
notes: Soluble His-tagged humanized scFv; also called humanized EGFRvIII scFv variant, VK2-VH5, 4G4S
B7: CAR5 - Soluble scFv (scFv)
scFv: EIQLVQSGAEVKKPGATVKISCKGSGFNIEDYYIHWVQQAPGKGLEWMGRIDPENDETKYGPIFQGRVTITADTSTNTVYMELSSLRSEDTAVYYCAFRGGVYWGQGTTVTVSSGGGGSGGGGSGGGGSGGGGSDVVMTQSPLSLPVTLGQPASISCKSSQSLLDSDGKTYLNWLQQRPGQSPRRLISLVSKLDSGVPDRFSGSGSGTDFTLKISRVEAEDVGVYYCWQGTHFPGTFGGGTKVEIKGSHHHHHHHH
notes: Soluble His-tagged humanized scFv; also called humanized EGFRvIII scFv variant, VH1-VK2, 4G4S

In one test the target is T1, EGFRvIII-Fc fusion protein (UniProt P00533 25-645).
T1 construct: Soluble reagent used at different concentrations to stain CAR-transfected Jurkat cells; not shown: Fc part; detected with PE anti-human IgG Fc
The test can be described thus: flow cytometry, Jurkat E6 cells electroporated with the CAR vector, stained with different concentrations of Fc fusion protein and PE anti-human IgG Fc. The protocol: Jurkat E6 cells were electroporated with either CAR9 vector or CAR10 vector using Amaxa Cell Line Nucleofector Kit V (Lonza, Colgne AG, Germany) and program X-001. One day after the transfection, 0.5×10⁶ cells were placed into each well of a V-shape 96 well plate (Greiner Bio-One, Germany) in 0.2 ml FACS buffer (DPBS buffer containing 5% FBS) and incubated for 10 minutes at room temperature. Cells were then spun down and resuspended in 0.2 ml of the FACS buffer with different concentrations of EGFRvIII-Fc or EGFRwt-Fc and incubated at 4° C. for 30 minutes. Cells were then washed with FACS buffer three times, and incubated with 0.2 ml of the FACS buffer with 2 μl of PE anti-human IgG Fc (Jackson ImmunoResearch Laboratories, West Grove, PA) for 30 minutes at 4° C. in the dark. After washing with 0.2 ml of FACS buffer three times, cells were analyzed on a LSRII (BD Biosciences, San Jose, CA) machine using the FACSDiva software (BD Biosciences, San Jose, CA). Immunofluorescence staining was analyzed as the relative log fluorescence of live cells, and the percentage of the PE positive cells were measured.
(In general: A flow cytometer gives signals particle by particle.)
On to B1, for which the “fold lower binding compared to CAR9” value was ~40 fold.

The target in the next test is T2, human EGFRvIII (epidermal growth factor receptor variant III), expressed on cells (human, UniProt P00533 25-1210).
T2 construct: whole, on cells; also called hEGFRvIII; hEGFRvII
The test can be described thus: flow cytometry (FACS), purified His-tagged scFv on HEK293F cells transiently transfected with hEGFRvIII. As to the method:
HEK293F suspension cells were transiently transfected with either wild type hEGFR or hEGFRvII and were harvested 2 days after transfection. Approximately 5e5 cells/per well were transferred to a BD Falcon 96 well plate. The cells were spun down at 900 rpm (Sorval Legend XT centrifuge) for 3 minutes. The supernatant was removed. Anti-EGFRvII scFv protein samples were diluted in DPBS with 5% FBS. The samples were added into the wells, mixed and incubated for 1 hour. The cells were washed twice in the DPBS with 5% FBS. The cells were incubated with anti-poly His PE (R&D) for 1 hour, washed twice before FACS analysis (LSRII from BD Biosciences).
Turning to B2, the binding result was “binds”.
Still for that read-out and setting: as for B3, the entry is “binds”.
As for B4, the binding result was “binds”.
On the same count and under the same terms, with B5 the entry was “binds”; with B6, “binds”.
The same measure, in the same setting: as for B7, the entry is “binds”.
